{"source": "paper PMC8175417", "about": "“Streptococcus pneumoniae pneumolysin and neuraminidase A convert high-density lipoproteins into pro-atherogenic particles” (iScience, 2021)", "biological_target": "the molecule itself", "assay": "non-reducing SDS-PAGE with Western blot; hirudin blood incubated with 200 nM PLY for 1 h at 37 °C; total HDL isolated from the plasma by flotation ultracentrifugation; samples and 50 ng PLY control run under non-reducing conditions; detected with anti-penta-His antibody"}
{"protein": "Recombinant Streptococcus pneumoniae serotype 2 Pneumolysin (PLY) (natural protein, UniProt Q04IN8 1-471, looked up, Pneumolysin (PLY), Streptococcus pneumoniae serotype 2; recombinant protein bought from Cusabio; Detected with a penta-His antibody) MANKAVNDFILAMNYDKKKLLTHQGESIENRFIKEGNQLPDEFVVIERKKRSLSTNTSDISVTATNDSRLYPGALLVVDETLLENNPTLLAVDRAPMTYSIDLPGLASSDSFLQVEDPSNSSVRGAVNDLLAKWHQDYGQVNNVPARMQYEKITAHSMEQLKVKFGSDFEKTGNSLDIDFNSVHSGEKQIQIVNFKQIYYTVSVDAVKNPGDVFQDTVTVEDLKQRGISAERPLVYISSVAYGRQVYLKLETTSKSDEVEAAFEALIKGVKVAPQTEWKQILDNTEVKAVILGGDPSSGARVVTGKVDMVEDLIQEGSRFTADHPGLPISYTTSFLRDNVVATFQNSTDYVETKVTAYRNGDLLLDHSGAYVAQYYITWDELSYDHQGKEVLTPKAWDRNGQDLTAHFTTSIPLKGNVRNLSVKIRECTGLAWEWWRTVYEKTDLPLVRKRTISIWGTTLYPQVEDKVEND", "values": [{"measurement": "binding result", "value": "binds"}]}
